Test results published in paper PMC7769281, “The plasticity of the pyruvate dehydrogenase complex confers a labile structure that is associated with its catalytic activity” (PLoS ONE, 2020).

Target: the molecule itself
Assay: SEC; FLAG-purified E3-5xFLAG on Superose 6 in 350 mM NaCl; peak fraction (16 ml, ~230 kDa) analysed by MudPIT

B1: yeast PDC E3, Lpd1-5xFLAG (natural protein, S. cerevisiae, UniProt P09624 22-499, looked up)
chain: TINKSHDVVIIGGGPAGYVAAIKAAQLGFNTACVEKRGKLGGTCLNVGCIPSKALLNNSHLFHQMHTEAQKRGIDVNGDIKINVANFQKAKDDAVKQLTGGIELLFKKNKVTYYKGNGSFEDETKIRVTPVDGLEGTVKEDHILDVKNIIVATGSEVTPFPGIEIDEEKIVSSTGALSLKEIPKRLTIIGGGIIGLEMGSVYSRLGSKVTVVEFQPQIGASMDGEVAKATQKFLKKQGLDFKLSTKVISAKRNDDKNVVEIVVEDTKTNKQENLEAEVLLVAVGRRPYIAGLGAEKIGLEVDKRGRLVIDDQFNSKFPHIKVVGDVTFGPMLAHKAEEEGIAAVEMLKTGHGHVNYNNIPSVMYSHPEVAWVGKTEEQLKEAGIDYKIGKFPFAANSRAKTNQDTEGFVKILIDSKTERILGAHIIGPNAGEMIAEAGLALEYGASAEDVARVCHAHPTLSEAFKEANMAAYDKAIHC
notes: Dihydrolipoamide dehydrogenase (E3, Lpd1), S. cerevisiae BY4741; also called E3-5xFLAG; yPDC-E3
Q: Does B1 bind?
A: binds
